Test results taken from patent publication US6924412.

Molecular target: murine dimeric IgA (mouse) (UniProt P01592)
Experiment: cell-based or functional assay

Sequence of UniProt P01592 (P01592 22-159): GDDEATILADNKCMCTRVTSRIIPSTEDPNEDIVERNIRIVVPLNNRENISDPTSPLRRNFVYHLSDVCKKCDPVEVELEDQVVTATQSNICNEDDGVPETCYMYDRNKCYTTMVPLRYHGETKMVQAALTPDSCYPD

Work on “murine polymeric immunoglobulin receptor (from UniProt O70570 19-771)” yielded a total IgA concentration in milk by ELISA, transgenic line 3644 (270-fold increased SC); control mean 292 mg/ml of 593 and a total IgA level in milk by ELISA, transgenic line 3646 (60-fold elevated SC) against control mice of 1.5 times.
